The values that follow are results of earlier work, collected in article PMC5473928.

Several values for one entry are separate records, joined by “and”; a condition that tells them apart may be missing. Equal entries are not always repeated.

This data set has as its target SOS allosteric site (Homo sapiens) (UniProt Q07889).

Broadly, the Kd is the constant that tells how readily two partners part at equilibrium. On to KRas (from UniProt P01116), for which the Kd is 3.6 µM and 10 µM.
